According to patent US20170101472A1 (Regeneron, published 2017):

T1: human LAG3 expressed on HEK293 cells (human, UniProt P18627 23-525)
T1 construct: also called hLAG3; HEK293/hLAG3
T1 sequence: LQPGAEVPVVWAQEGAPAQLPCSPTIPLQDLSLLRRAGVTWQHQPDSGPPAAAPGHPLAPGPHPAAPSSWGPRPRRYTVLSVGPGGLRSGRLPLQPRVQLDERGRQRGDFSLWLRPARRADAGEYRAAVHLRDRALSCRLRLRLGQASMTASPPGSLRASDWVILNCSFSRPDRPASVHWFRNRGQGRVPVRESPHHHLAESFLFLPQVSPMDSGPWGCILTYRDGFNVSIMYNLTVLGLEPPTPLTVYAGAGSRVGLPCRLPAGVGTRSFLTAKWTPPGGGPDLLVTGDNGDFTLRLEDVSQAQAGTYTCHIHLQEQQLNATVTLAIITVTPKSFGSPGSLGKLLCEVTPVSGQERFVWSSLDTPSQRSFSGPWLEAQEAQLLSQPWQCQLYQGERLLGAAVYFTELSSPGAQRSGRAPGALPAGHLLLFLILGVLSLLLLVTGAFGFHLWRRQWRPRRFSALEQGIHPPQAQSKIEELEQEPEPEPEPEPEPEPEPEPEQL

T2: human LAG3 chimera (extracellular domain of human LAG3 and trans-membrane/cytoplasmic domain of human CD300a) … (human, UniProt P18627 23-450; Q9UGN4 181-299, limits assumed)
T2 sequence (looked up): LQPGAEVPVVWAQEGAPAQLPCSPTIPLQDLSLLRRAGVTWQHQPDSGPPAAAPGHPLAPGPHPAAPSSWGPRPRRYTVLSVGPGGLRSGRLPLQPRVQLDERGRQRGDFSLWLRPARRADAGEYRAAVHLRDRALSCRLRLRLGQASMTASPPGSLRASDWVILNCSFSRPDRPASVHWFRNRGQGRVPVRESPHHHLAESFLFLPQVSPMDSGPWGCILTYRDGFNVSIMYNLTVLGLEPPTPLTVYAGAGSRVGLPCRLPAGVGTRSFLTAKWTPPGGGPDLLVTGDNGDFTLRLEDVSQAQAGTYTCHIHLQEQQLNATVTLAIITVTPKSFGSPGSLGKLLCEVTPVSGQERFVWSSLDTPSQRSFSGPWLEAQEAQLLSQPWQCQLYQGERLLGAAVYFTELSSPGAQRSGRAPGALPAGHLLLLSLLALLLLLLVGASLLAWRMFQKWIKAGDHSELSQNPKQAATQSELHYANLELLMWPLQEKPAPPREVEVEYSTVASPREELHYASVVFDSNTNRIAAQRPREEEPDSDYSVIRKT


Key:
[1] = target: T1, human LAG3 expressed on HEK293 cells; test: flow cytometry, HEK293/hLAG3 cells
Method: The serially diluted antibodies were added to the cell suspension and incubated for 15-30 minutes on ice. The cells were centrifuged and pellets were washed with staining buffer to remove unbound antibodies. […] The cells were centrifuged and pellets were washed with staining buffer to remove unbound secondary F(ab′)2 and fixed overnight with a 1:1 dilution of Cytofix (BD Biosciences, #554655) and staining buffer. Following day, fixed cells were centrifuged and pellets were washed with staining buffer, resuspended and filtered. Fluorescence measurements were acquired on HyperCyt® cytometer and analyzed in ForeCyt™ (IntelliCyt; Albuquerque, N. Mex.) to determine the mean fluorescence intensities (MFI). The EC₅₀ values were calculated from a four-parameter logistic equation over an 11-point response curve using GraphPad Prism. EC₅₀ was defined as the concentration of antibody at which 50% of maximal binding signal is detected. The MFI ratio for each antibody was calculated by dividing the MFI at 100 nM by MFI at 0 nM of antibody concentration.

[2] = target: T1, human LAG3 expressed on HEK293 cells; test: cell adherence assay, blocks A20 (mouse MHCII) cells on HEK293-hLAG3
Method: Cells were plated into sterile Nunclon™ Delta 96-Well MicroWell™ Black Optical Bottom Plates (Thermo Scientific). The wells from the perimeter of the plate were not included in the assay design to avoid edge effects.
On the day of treatment, all antibodies were serially (1:3) diluted in RPMI media (without FBS or supplements added). The 9-point dilution ranged between 45 pM to 300 nM, with the last dilution point containing no mAb. […] While the plated HEK293-LAG3 cells were incubating with the test or control antibodies, non-adherent B-cells (RAJI or A20) were labeled with Calcein AM using the following procedure. RAJI and A20 suspension cells were harvested and centrifuged at 1,200 rpm for 5 minutes. Cell pellets were resuspended in 1×PBS and counted. Cells were washed with RPMI, and resuspended in RPMI at a concentration of 10⁶ cells per 1 ml. Cells were labeled by adding 5 μL of Calcein AM per 1 ml of cell suspension and incubated for 30 min at 37° C., at 5% CO₂. […] Subsequently, 10 μL of BD Pharmingen Fc Block (0.5 mg/mL) was added per 1 ml of the Calcein AM labeled cells, which were incubated at RT for 10 minutes. The Calcein AM-stained, Fc-blocked RAJI or A20 cells were resuspended in RPMI to a final concentration of 3×10⁶ cells per 1 ml and subsequently used in the adherence assay.
The labeled suspension cells were incubated with the HEK293 monolayer for 1 hour at 37° C., at 5% CO₂.

[3] = target: T2, human LAG3 chimera (extracellular …); test: cell-based or functional assay

Binder | EC50 [1] [nM] | IC50 [2] [nM] | EC50, AP1-Luc signaling, bispecific mode [3] [nM] | EC50, AP1-Luc signaling, peptide mode [3] [nM] | Ratio of MFI (100 nM/0 nM) [1]
H4H15482P (antibody, human IgG4 S228P, kappa, H4H = human IgG4 Fc with S108P) heavy: not shown light: EIVLTQSPATLSLSPGERTTLSCRASQRISTYLAWYQQKPGQAPRLLIYDASKRATGIPARFSGSGSGTGFTLTISSLEPEDFAVYYCQQRSNWPLTFGGGTKVEIKRTVAAPSVFIFPPSDEQLKSGTASVVCLLNNFYPREAKVQWKVDNALQSGNSQESVTEQDSKDSTYSLSSTLTLSKADYEKHKVYACEVTHQGLSSPVTKSFNRGEC | 1.91 | 11 | > 100 | 2.48 | –
H4sH15498P2 (antibody, V domains shown, H4sH = human IgG4 Fc with 2 or more amino acid changes as disclosed in US20140243504) VH: EVQLVESGGGLVQPGGSLRLSCAASGFTFTSYAMTWVRQAPGKGLEWVSDISGSGGRTYYADSVKGRFTISRDNSKNMLYLQMNILRAEDTAVYHCAKGTGQQVDLYNYYYALDVWGQGTTVTVSS VL: not shown | 7.92 | 21 | > 100 | 4.61 | 401
H4H15498P2 (antibody, human IgG4, V domains shown, H4H = human IgG4 Fc with S108P hinge mutation) VH: EVQLVESGGGLVQPGGSLRLSCAASGFTFTSYAMTWVRQAPGKGLEWVSDISGSGGRTYYADSVKGRFTISRDNSKNMLYLQMNILRAEDTAVYHCAKGTGQQVDLYNYYYALDVWGQGTTVTVSS VL: not shown | 5.76 | 30 | 6.62 | 5.89 | 305
H4sH14813N (antibody, human IgG4 S228P, kappa, V domains shown, H4sH = modified human IgG4 Fc) VH: QVQLQQWGAGLLKPSETLSLTCAVYGGSFSGYYWNWIRQPPGKGLEWVGEISHRGSTNYNPSLKSRVTISLDTSKNQFSLKLTSVTAADTAVYYCSRDEELEFRFFDYWGQGTLVTVSS VL: EIVLTQSPATLSLSPGERATLSCRASQSVSSYLAWYQQKPGQAPRLLVYGASNRATGIPARFSGSGSGTDFTLTISSLEPEDFAFYYCQQRSNWPLTFGGGTKVEIKR | 1.18 | 10 | 0.688 | 0.816 | 197

Now those with a lower EC50 [1], led by results:

EC50 [1] [nM] | IC50 [2] [nM] | EC50, AP1-Luc signaling, bispecific mode [3] [nM] | EC50, AP1-Luc signaling, peptide mode [3] [nM] | Ratio of MFI (100 nM/0 nM) [1] | Binder
1.11 | 3.8 | 0.518 | 0.806 | – | H4sH15482P (antibody, human IgG4 S228P, kappa, H4sH = modified human IgG4 Fc; also called mAb1) heavy: QVQLVESGGGVVQPGRSLRLSCVASGFTFSSYGMHWVRQAPGKGLEWVAIIWYDGSNKYYADSVKGRFTISRDNSKNTQYLQMNSLRAEDTAVYYCASVATSGDFDYYGMDVWGQGTTVTVSSASTKGPSVFPLAPCSRSTSESTAALGCLVKDYFPEPVTVSWNSGALTSGVHTFPAVLQSSGLYSLSSVVTVPSSSLGTKTYTCNVDHKPSNTKVDKRVESKYGPPCPPCPAPPVAGPSVFLFPPKPKDTLMISRTPEVTCVVVDVSQEDPEVQFNWYVDGVEVHNAKTKPREEQFNSTYRVVSVLTVLHQDWLNGKEYKCKVSNKGLPSSIEKTISKAKGQPREPQVYTLPPSQEEMTKNQVSLTCLVKGFYPSDIAVEWESNGQPENNYKTTPPVLDSDGSFFLYSRLTVDKSRWQEGNVFSCSVMHEALHNHYTQKSLSLSLGK light: EIVLTQSPATLSLSPGERTTLSCRASQRISTYLAWYQQKPGQAPRLLIYDASKRATGIPARFSGSGSGTGFTLTISSLEPEDFAVYYCQQRSNWPLTFGGGTKVEIKRTVAAPSVFIFPPSDEQLKSGTASVVCLLNNFYPREAKVQWKVDNALQSGNSQESVTEQDSKDSTYSLSSTLTLSKADYEKHKVYACEVTHQGLSSPVTKSFNRGEC
0.752 | 11 | 0.145 | 0.284 | 203 | H4H15479P (antibody, human IgG4, V domains shown) VH: QVQLQQWGAGLLNPSETLSLTCAVYGGAFSDYYWNWIRQPPGKGLEWIGEINHRGSTNYNPSLKSRVTISVDTSKNQFSLRMSSVTAADAAVYYCARGEDYDIWNGYYQEKWGQGTLVTVSS VL: EIVLTQSPATLSLSPGERATLSCRASQSISTYLAWYQQKPGQAPRLLIYDASKRATGIPARFSGSGSGTDFTLTISSLEPEDFVVYYCHQRSNWPLTFGGGTKVEIK
